Here are results for six molecules from patent US20230331827A1, “POTASSIUM CHANNEL INHIBITORS” (priority 2017, published 2023).

For one experiment, the target named is T1, human ASIC1a (human) (UniProt P78348).
T1 sequence (looked up): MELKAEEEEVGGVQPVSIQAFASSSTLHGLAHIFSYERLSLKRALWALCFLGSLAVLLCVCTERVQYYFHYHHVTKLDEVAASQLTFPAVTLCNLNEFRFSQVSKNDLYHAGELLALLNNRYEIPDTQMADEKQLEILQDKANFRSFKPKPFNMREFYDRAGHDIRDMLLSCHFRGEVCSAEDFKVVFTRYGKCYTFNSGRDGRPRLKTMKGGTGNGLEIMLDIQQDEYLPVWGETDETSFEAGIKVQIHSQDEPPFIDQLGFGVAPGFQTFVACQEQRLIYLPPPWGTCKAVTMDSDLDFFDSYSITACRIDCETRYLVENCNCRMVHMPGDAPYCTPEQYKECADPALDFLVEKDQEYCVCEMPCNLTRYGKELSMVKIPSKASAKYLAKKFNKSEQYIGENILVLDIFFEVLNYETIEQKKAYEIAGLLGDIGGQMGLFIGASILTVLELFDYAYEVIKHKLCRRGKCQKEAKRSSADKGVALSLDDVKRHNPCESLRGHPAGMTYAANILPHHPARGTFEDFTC
The experiment in a line: cell-based or functional assay.

Another experiment has as its target human Kv1.1 (human) (UniProt Q09470). The experiment in a line: cell-based or functional assay.
In the next experiment the target is human Kv1.3 (human) (UniProt P22001). The experiment in a line: cell-based or functional assay.
human Kv1.3 (human), sequence (P22001 whole entry): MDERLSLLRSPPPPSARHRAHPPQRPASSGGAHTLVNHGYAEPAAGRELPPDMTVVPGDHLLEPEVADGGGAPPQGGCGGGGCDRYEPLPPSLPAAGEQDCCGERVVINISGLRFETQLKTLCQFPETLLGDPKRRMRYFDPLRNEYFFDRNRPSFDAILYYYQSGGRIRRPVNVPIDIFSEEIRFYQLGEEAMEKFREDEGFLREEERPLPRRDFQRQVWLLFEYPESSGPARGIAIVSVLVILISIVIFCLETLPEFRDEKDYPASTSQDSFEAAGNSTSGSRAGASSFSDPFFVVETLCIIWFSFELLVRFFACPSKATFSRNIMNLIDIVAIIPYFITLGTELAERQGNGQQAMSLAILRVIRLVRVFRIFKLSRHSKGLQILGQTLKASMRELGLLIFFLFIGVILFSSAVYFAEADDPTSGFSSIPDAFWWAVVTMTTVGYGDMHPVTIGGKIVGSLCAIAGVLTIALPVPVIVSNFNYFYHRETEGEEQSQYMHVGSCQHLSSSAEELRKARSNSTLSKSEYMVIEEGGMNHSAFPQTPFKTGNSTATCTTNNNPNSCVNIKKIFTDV
Experiment [1] concerns the target trypsin. The experiment in a line: flow cytometry, biotinylated trypsin/streptavidin-APC. For orientation: Flow cytometry measures light scatter and fluorescence of single cells or particles in a stream.
The target in experiment [2] is trypsin. Briefly: flow cytometry of HEK293 cells displaying the scFv-Fc, 15 days post transfection after blasticidin selection; untransfected cells (panel C): Q2 0.043.
In experiment [3] the target is trypsin. The experiment in a line: phage TRF, GlyAla mutant against parent clone.

human Kv1.1 (human), sequence (Q09470 whole entry): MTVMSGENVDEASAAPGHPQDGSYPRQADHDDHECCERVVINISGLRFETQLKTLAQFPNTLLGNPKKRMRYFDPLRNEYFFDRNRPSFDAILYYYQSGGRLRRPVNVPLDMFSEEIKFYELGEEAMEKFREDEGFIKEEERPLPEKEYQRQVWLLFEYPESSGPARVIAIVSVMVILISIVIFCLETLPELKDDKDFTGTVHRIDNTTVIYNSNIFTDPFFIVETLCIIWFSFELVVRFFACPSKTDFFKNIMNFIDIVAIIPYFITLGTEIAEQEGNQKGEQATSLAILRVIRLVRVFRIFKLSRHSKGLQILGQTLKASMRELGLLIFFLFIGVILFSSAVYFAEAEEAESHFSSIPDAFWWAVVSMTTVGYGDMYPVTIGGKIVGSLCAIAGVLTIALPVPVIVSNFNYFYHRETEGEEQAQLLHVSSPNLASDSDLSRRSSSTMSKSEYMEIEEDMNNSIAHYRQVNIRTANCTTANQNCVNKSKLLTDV

B1: KB_A07 IgG1 (EETI-II fusion) (antibody, V domains shown)
VH: EVQLVESGGGLVRPGGSLRLSCAASGFTFSSYAMSWVRQAPGKGLEWVSAISGSGGSTYYADSVKGRFTISRDNTKNSLYLQMTSLRADDTAFYYCVKDFGPGYGTGWFDYWGPGTLVTVSS
VL: YLNWYQQKPGKAPKLLIYAAGVCPRILMRCKQDSDCLAGCVCGPNGFCGSRSGVPSRFSGSGSGTDFTLTISSLQPEDFATYYCQQGASPPYTFGQGTKVEIKR
In the experiment with human ASIC1a (human), B1 yielded a % ASIC1a current remaining at 6 µM, QPatch of 70.9%. The IC50, channel current, QPatch patch clamp with human Kv1.1 (human) was above 10 µM. In the experiment with human Kv1.3 (human), the IC50, channel current, QPatch patch clamp was above 10 µM and the IC50, huKv1.3 current, QPatch patch clamp is above 10 µM.

B2: KB_A12 scFv-Fc displayed on HEK293 cells (Fc fusion)
VH: B1 VH
VL: QSVLTQPPSVSEAPRQRVTITCSGSSSNIGNNAVNWYQQLPGKAPKLLIYAAGRCPRILMRCKQDSDCLAGCVCGPNGFCGANSGVSDRFSAAKSGTSASLAINGLRSEDEADYYCAAWDDSLNGYVFGTGTKLTVLGQP
B2 yielded a % of transfected HEK293 cells dual stained for Fc and trypsin in the experiment with trypsin [1] of 11%. Also, the Q2, share of cells stained by both anti-Fc-PE (FL2) and biotinylated trypsin/streptavidin-APC (FL4) with trypsin [2] was 11.2%.

B3: KB_A12 IgG1 (EETI-II fusion) (antibody, V domains shown)
VH: B1 VH
VL: AVNWYQQLPGKAPKLLIYAAGRCPRILMRCKQDSDCLAGCVCGPNGFCGANSGVSDRFSAAKSGTSASLAINGLRSEDEADYYCAAWDDSLNGYVFGTGTKLTVLG
As for B3, the % ASIC1a current remaining at 3.3 µM, QPatch in the experiment with human ASIC1a (human) is 67.4%. This molecule also displayed an IC50, channel current, QPatch patch clamp in the experiment with human Kv1.1 (human) above 10 µM. In the experiment with human Kv1.3 (human), this molecule gave an IC50, channel current, QPatch patch clamp above 10 µM and an IC50, huKv1.3 current, QPatch patch clamp above 10 µM.

B4: KB_A11 GlyAla mutant (scFv on phage) (scFv, V domains shown)
VH: B1 VH
VL: YLNWYQQKPGKAPKLLIYAAEICGAILMRCKQDSDCLAGCVCGPNGFCGPSSGIPARFSGSGYGTDFTLTINNIESEDAAYYFCLQHDNFPYTFGQGTKVEIKR
Turning to B4, the % reduction in binding signal with trypsin [3] stood at 100%.

B5: KB_A07 scFv-Fc displayed on HEK293 cells (Fc fusion)
VH: B1 VH
VL: DIQMTQSPSSLSASVGDRVTITCRASQSISSYLNWYQQKPGKAPKLLIYAAGVCPRILMRCKQDSDCLAGCVCGPNGFCGSRSGVPSRFSGSGSGTDFTLTISSLQPEDFATYYCQQGASPPYTFGQGTKVEIKRT
B5 came in with a % of transfected HEK293 cells dual stained for Fc and trypsin with trypsin [1] of 34%. Besides, in the experiment with trypsin [2], the Q2, share of cells stained by both anti-Fc-PE (FL2) and biotinylated trypsin/streptavidin-APC (FL4) worked out at 33.8%.

B6: KB_A01 GlyAla mutant (scFv on phage) (scFv, V domains shown)
VH: B1 VH
VL: YLNWYQQKPGKAPKLLIYAAEVCGAILMRCKQDSDCLAGCVCGPNGFCGGTSGVPSRFSGSRSGTEFTLTISSLQPEDFATYYCQKVDDYPLTFGGGTKVEIKR
Regarding B6, the % reduction in binding signal in the experiment with trypsin [3] was determined as 93%.
